Results as given in the DeepSol protein solubility set.

Experiment: soluble on expression in E. coli; label from the status in PepcDB or PDB records

Row | Sequence | soluble on expression in E. coli
1 | KKMAFTLADRVTEEMLADKAALVVEVVEENYHDAPIVGIAVVNEHGRFFLRPETALADPQFVAWLGDETKKKSMFDSKRAAVALKWKGIELCGVSFDLLLAAYLLDPAQGVDDVAAAAKMKQYEAVRPDEAVYGKGAKRAVPDEPVLAEHLVRKAAAIWELERPFLDELRRNEQDRLLVELEQPLSSILAEMEFAGVKVDTKRLEQMGKELAEQLGTVEQRIYELAGQEFNINSPKQLGVILFEKLQLPVLKKTKTGYSTSADVLEKLAPYHEIVENILHYRQLGKLQSTYIEGLLKVVRPATKKVHTIFNQALTQTGRLSSTEPNLQNIPIRLEEGRKIRQAFVPSESDWLIFAADYSQIELRVLAHIAEDDNLMEAFRRDLDIHTKTAMDIFQVSEDEVTPNMRRQAKAVNYGIVYGISDYGLAQNLNISRKEAAEFIERYFESFPGVKRYMENIVQEAKQKGYVTTLLHRRRYLPDITSRNFNVRSFAERMAMNTPIQGSAADIIKKAMIDLNARLKEERLQAHLLLQVHDELILEAPKEEMERLCRLVPEVMEQAVTLRVPLKVDYHYGSTWYDAK | soluble
2 | KKSPMLCGQYPVKSEGKELKIVVQPETQHRARYLTEGSRGSVKDRTQQGFPTVKLEGHNEPVVLQVFVGNDSGRVKPHGFYQACRVTGRNTTPCKEVDIEGTTVIEVGLDPSNNMTLAVDCVGILKLRNADVEARIGIAGSKKKSTRARLVFRVNIMRKDGSTLTLQTPSSPILCTQPAGVPEILKKSLHSCSVKGEEEVFLIGKNFLKGTKVIFQENVSDENSWKSEAEIDMELFHQNHLIVKVPPYHDQHITLPVSVGIYVVTNAGRSHDVQPFTYTPD | soluble
3 | KKYVVFDMDGTLTTTDFEDVKQYAGEFFNSNYVAKMYPDVDNVVKYYASKGYGILYLTARPYWLSEESQTWLWKNGFPMGLLHTYTGGDVLLGEEAESFKAGYLNQLKSQGIEFDYGFGNEKTDVEAYSNIGIAKSNIFTIGKNRGIDGSVSIVSYTDYLKQLSGN | not soluble
4 | KMETAFDIERTMGRRIEYVSNILAVSESELGSLYSYDIMIDLGEEGKAKTPEALRALDSIARHAEAYSLTKRTTSILNILKDLNQTLHDGDQAYYSIPGDAEEVAQQLLLYENAGGSEAESWIDYEYRRLRLKVEMTSYNSGEAEWELQDITDYARKLFPEAEITPVGSLPQFTTMMQYVVRGQ | not soluble
5 | KMGPEYTKMQNLVKSEGLHTVCQEAGCPNIYECWEDREATFLIGGDQCTRRCDFCQIDTGKPEALDRDEPRRVGESVVTMDLNYATITGVARDDLEDGGAWLYAETVRQIHAQTAGREAGRTKVELLAPDFNAEPDQLAEVFSARPEVFAHNVETVPRIFKRIRPGFRYERSLKVITEARDYGLVTKSNLILGMGETREEVSEALRQLHDAGCELITITQYLRPSVRHHPVERWVKPHEFVELKEEAEEIGFSGVMSGPLVRSSYRAGRLYQMAMELRQSAAPQGGAQVASQAV | not soluble
6 | KNTPVRMRGTLQDITERTKIEDSLLLSEERYRSFIQNFTGIAFQQDEDLNLEFVKGNVEEITGYSEEELMSKKRWRKIVEKQDLPLFLKKEREIKNARSPYSGKLSYRIRCKDGKIKWVHEVYQKIPGKN | not soluble
7 | KNVLILGAGGQIARHVINQLADKQTIKQTLFARQPAKIHKPYPTNSKIIMGDVLNHAALKQAMQGQDVVYANLTGEDLDIQANSVIAAMKACDVKRLIFVLSLGIYNEVPGKFGEWNNAVIGEPLKPFRRAADAIEASGLEYTILRPAWLTDEDIIDYELTSRNEPFKGTIVSRKSVAALITDIINKPEKHIGENIGINQPGTDG | not soluble
8 | KPLQRKLASGMVKKHSIIRALNKVYKRDVYFPGEEELNEVLSDEHKSGANTWEETTELNFEPDMTTVTTEDQSAKPPEQKTPSKDVLDFTQNFLQP | not soluble
9 | KQATMKNAALKQLTKDADEILHLIKVQLDNLTLPSCPLYEEVLDTQMFGLQKEVDFAVKLGLVDREDGKQIMLRLEKELSKLHEAFTLV | not soluble
10 | KQKKMQAMIVTSKPYCVIKRIHRDLHRGVTCINDAEGTYNHEKKAVLITILTREEFSDFKYLMLKADPKAFVSVAENVHIIGRFVDDD | not soluble
11 | KREHAKQHGMIRTEITGAEIAEEMEKERRLFQLQMCEYLIKVNEIKTKKGVDLLQNLIKYYHAQCNFFQDGLKTADKLKQYIEKLAADLYNIKQTQDEEKKQLTALRDLIKSSLQLDQKESRRDSQSRQGGYSMHQLQGNKEYGSEKKGYLLKKSDGIRKVWQRRKCSVKNGILTISHATSNRQPAKLNLLTCQVKPNAEDKKSFDLISHNRTYHFQAEDEQDYVAWISVLTNSKEEALTMAFRGEQSAGENSLEDLTKAIIEDVQRLPGNDICCDCGSSEPTWLSTNLGILTCIECSGIHREMGVHISRIQSLELDKLGTSELLLAKNVGNNSFNDIMEANLPSPSPKPTPSSDMTVRKEYITAKYVDHRFSRKTCSTSSAKLNELLEAIKSRDLLALIQVYAEGVELMEPLLEPGQELGETALHLAVRTADQTSLHLVDFLVQNCGNLDKQTALGNTVLHYCSMYSKPECLKLLLRSKPTVDIVNQAGETALDIAKRLKATQCEDLLSQAKSGKFNPHVHVEYEWNLRQEEIDESDDDLDDKPSPIKKERSPRPQSFCHSSSISPQDKLALPGFSTPRDKQRLSYGAFTNQIFVSTSTDSPTSPTTEAPPLPPRNAGKGPTGPPSTLPLSTQTSSGSSTLSKKRPPPPPPGHKRTLSDPPSPLPHGPPNKGAVPWGNDGGPSSSSKTTNKFEGLSQQSSTSSAKTALGPRVLPKLPQKVALRKTDHLSLDKATIPPEIFQKSSQLAELPQKPPPGDLPPKPTELAPKPQIGDLPPKPGELPPKPQLGDLPPKPQLSDLPPKPQMKDLPPKPQLGDLLAKSQTGDVSPKAQQPSEVTLKSHPLDLSPNVQSRDAIQKQASEDSNDLTPTLPETPVPLPRKINTGKNKVRRVKTIYDCQADNDDELTFIEGEVIIVTGEEDQEWWIGHIEGQPERKGVFPVSFVHILSD | soluble
12 | KRYIPSVNDFVIGVIIGTFSDSYKVSLQNFSSSVSLSYMAFPNASKKNRPTLQVGDLVYARVCTAEKELEAEIECFDSTTGRDAGFGILEDGMIIDVNLNFARQLLFNNDFPLLKVLAAHTKFEVAIGLNGKIWVKCEELSNTLACYRTIMECCQKNDTAAFKDIAKRQFKEILT | soluble
13 | KSIELYENNIPNGKTDAILIKNQTLISALKNPKQTKSSQRSSQSTNTQNDAICYLAFNSKIRPDDKDIFLLDKFGEKFVTAIVNFEEKTEVKINTLQEKEAVVLPAPQKFKPTDPKSVALVQGPSLIGIHANANEDRSTIKFLNW | not soluble
14 | KSIYIQSPYFIPDQAFLDSIKIAALGGVDVNIMIPNKPDHPFVFWATLKNAASLLDAGVKVFHYDNGFLHSKTLVIDDEIASVGTANMDHRSFTLNFEVNAFIYDQQIAKKLKQAFIDDLAVSSELTKARYAKR | not soluble
15 | KSPVREPVDNLSPEERDARTVFCMQLAARIRPRDLEDFFSAVGKVRDVRIISDRNSRRSKGIAYVEFCEIQSVPLAIGLTGQRLLGVPIIVQASQAEKNRL | soluble
16 | KTHEGHCYIIKAHTPIEEFNEQLNADFSDETYDTIGGIVLNKFGYLPQRGEVIIIDDFEFKVLNADSRRIKLLECLDKR | soluble
17 | KVLGDGSYLFEGKTSLSDVRHYLDLPENAFGELGDEVDTLSGLFLEIKQELPHVGDTAVYEPFRFQVTQMDKRRIIEIKIFPFERTWEVE | not soluble
18 | KVQKIIVSEAGASVYSASELAAKEFPNMDVSLRGAVSIARRLQDPLAELVKIDPKSIGVGQYQHDVSQSMLVKRLDAIVEDCVNAVGVDVNTASAALLTRVAGLSSTIAQNIVDFRDENGRFEARTTLKKVPRLGPKAFEQCAGFLRIMDGKNPLDASAVHPEAYPVVKAIAEKNRKDIKALIGDSTFLKGLHAVDYTDEHFG | not soluble
19 | KVQTDPPSVPICDLYPNGVFPKGQECEYPPTQDGRTAAWRTTSEEKKALDQASEEIWNDFREAAEAHRQVRKYVMSWIKPGMTMIEICEKLEDCSRKLIKENGLNAGLAFPTGCSLNNCAAHYTPNAGDTTVLQYDDICKIDFGTHISGRIIDCAFTVTFNPKYDTLLKAVKDATNTGIKCAGIDVRLCDVGEAIQEVMESYEVEIDGKTYQVKPIRNLNGHSIGQYRIHAGKTVPIIKGGEATRMEEGEVYAIETFGSTGKGVVHDDMECSHYMKNFDVGHVPIRLPRTKHLLNVINENFGTLAFCRRWLDRLGESKYLMALKNLCDLGIVDPYPPLCDIKGSYTAQFEHTILLRPTCKEVVSRGDDY | soluble
20 | KVTNRHFQDVPALEVVTTTHLDQPLPLVIFYHGWQSNKELVLTQARKLARKNLRVVLPDAMNHGERHQIVSQIPSFTFWNSIQGNLGEFELIVNYYRERKLILNEQIGVGGYSMGGMTTGALLTHHPEIKAATIIMGTPNLNAYAQLVRKHAQAHAYYIPSDLALLTSWLDHYDLNLQPETINHRPLLFWHGTEDERIPYSQSRNFFDRVHTAPYAEQVAFITGYQAKHLVKVPLMNKVANFFDYYLN | not soluble
21 | LDLNNPQYNDVYEINYDFIYSLRNIMDYVVRGDEWALDDYYEALDIRNDDLRWVLSDVQYRRFLGAEYFYRPIYVTGGRWNFRIYINYPNRSLFYFGVPYHYRTYCGAHYRPHIHHVSYYRGRYNNLVHYPTPYRVRDQRVFHSYRRSDFGSVRFRPNTSVRPHNAPTRPGTSGRPGTTSR | not soluble
22 | LFSCIISSIETTKYVGISGVNKSVIDYTPAADMELVTIGESLSLKHPPIDATGCPSPATITRAAVDLLKIPIMTIDAGSYVKPKIPYISVDQRPTGDIQKGLGMDNSKELLNLGKIIGNNNIYDSLVIGESVPGGTTTALGVLLGLGYDARDKISSGSVENPKDLKLSVVENGLKTCKSEDVFDVLNAVGDKMMPVVAGMTISAVSKGK | not soluble
23 | LGNEDFNSVIQQMAQGRQIEYIDIERPSTGGLGFSVVALRSQNLGKVDIFVKDVQPGSVADRDQRLKENDQILAINHTPLDQNISHQQAIALLQQTTGSLRLIVAREPVHTKSST | soluble
24 | LKDFRYGIRLTGTTIKNEVISLGGKRIASGDIGAGKSVQMTEEGKPIKYFYGYNVIGIFQNEAQIKDYNERAAAATGNAGQQYQNNVGPGDLIYEDVDGDGYITANDRKDLGSPTPKFIGGLGISAFWKGFDLSIDFQGNFGNKIFNAKQVERFSGSDNWDRSFLDRWTPENPNTMTPRMTLEGNNYQVSSRYVESGSYVKLQTVELGYTFPKSWMQKVSVQNLRVYFSGNNLAYFTGYNGFTPEVLGGIDRQIYPVTATCRFGLNVTF | not soluble
25 | LKPYCRPSTSVVLQGLPMVARKTLFMLPDGGGSAFSYASLPRLKSDTAVVGLNCPYARDPENMNCTHGAMIESFCNEIRRRQPRGPYHLGGWSSGGAFAYVVAEALVNQGEEVHSLIIIDAPIPQAMEQLPRAFYEHCNSIGLFATQPGASPDGSTEPPSYLIPHFTAVVDVMLDYKLAPLHARRMPKVGIVWAADTVMDERDAPKMKGMHFMIQKRTEFGPDGWDTIMPGASFDIVRADGANHFTLMQKEHVSIISDLIDRVMA | soluble
26 | LLGLGVGPGDPELITLKALRLLRAAPVVGYFVAKGKKGNAFGIIEAHLDQAQVRLPLVYPVTTEKLEPPLCYETIISDFYDTAAEQLAAHLDAGRDVAVICEGDPFFYGSYMYLHDRLATRYESEVVPGVCSMLGGAAVLGAPLVYRNQSLSVLSGVLPEEELRRRLADADAAVVMKLGRNFDKVRRVLVELGLERRALYVERATMANQRIVPLERVEPMASPYFSLIVVPGDKWQGGAGGE | not soluble
27 | LLGNTIHVPCQPCRHGHGAPSRGLRGRPADRWPVARATPTLHVCPQNQGVGLDFVRKPEYGRLRWPAYPAGTNNDRLISMRDGGIVALPQLTDEQRAAALEKAAAARRARAELKDRLKRGGTNLTQVLKDAESDEVLGKMKVSALLEALPKVGKVKAQEIMTELEIAPTRRLRGLGDRQRKALLEKFGSA | soluble
